Experimental data from PMC3154423.

What was measured:
Assay in all cases: ITC
[1] = molecular target: Jun bZIP R263A;Fos bZIP K153A (human;human, UniProt P05412;P01100 252-315;137-200, R263A|K153A)
[2] = molecular target: Jun bZIP R270A;Fos bZIP R144A (human;human, UniProt P05412;P01100 252-315;137-200, R270A|R144A)
[3] = molecular target: Jun bZIP R272A;Fos bZIP R146A (human;human, UniProt P05412;P01100 252-315;137-200, R272A|R146A)
[4] = molecular target: Jun bZIP R259A;Fos bZIP K153A (human;human, UniProt P05412;P01100 252-315;137-200, R259A|K153A)
Jun-Jun bZIP R263A = Jun-Jun bZIP R263A (human, UniProt P05412 252-315, R263A)
Jun-Jun bZIP R259A = Jun-Jun bZIP R259A (human, UniProt P05412 252-315, R259A)
[5] = molecular target: Jun bZIP R261A;Fos bZIP R143A (human;human, UniProt P05412;P01100 252-315;137-200, R261A|R143A)
[6] = molecular target: Jun bZIP R263A;Fos bZIP R143A (human;human, UniProt P05412;P01100 252-315;137-200, R263A|R143A)
Jun-Jun bZIP R272A = Jun-Jun bZIP R272A (human, UniProt P05412 252-315, R272A)
[7] = molecular target: Jun bZIP K268A;Fos bZIP R158A (human;human, UniProt P05412;P01100 252-315;137-200, K268A|R158A)
[8] = molecular target: Jun bZIP R270A;Fos bZIP R146A (human;human, UniProt P05412;P01100 252-315;137-200, R270A|R146A)
[9] = molecular target: Jun bZIP K268A;Fos bZIP R155A (human;human, UniProt P05412;P01100 252-315;137-200, K268A|R155A)
[10] = molecular target: Jun bZIP K273A;Fos bZIP R155A (human;human, UniProt P05412;P01100 252-315;137-200, K273A|R155A)
[11] = molecular target: Jun bZIP R272A;Fos bZIP K153A (human;human, UniProt P05412;P01100 252-315;137-200, R272A|K153A)
[12] = molecular target: Jun bZIP R263A;Fos bZIP R144A (human;human, UniProt P05412;P01100 252-315;137-200, R263A|R144A)
[13] = molecular target: Jun bZIP R272A;Fos bZIP R155A (human;human, UniProt P05412;P01100 252-315;137-200, R272A|R155A)
[14] = molecular target: Jun bZIP R272A;Fos bZIP R144A (human;human, UniProt P05412;P01100 252-315;137-200, R272A|R144A)
Jun bZIP R272A;Fos bZIP R144A, sequence (P05412 252-315 R272A, chain 1 of 2): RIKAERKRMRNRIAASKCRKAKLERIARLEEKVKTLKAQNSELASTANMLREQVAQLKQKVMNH
Jun bZIP R272A;Fos bZIP R144A, sequence (P01100 137-200 R144A, chain 2 of 2): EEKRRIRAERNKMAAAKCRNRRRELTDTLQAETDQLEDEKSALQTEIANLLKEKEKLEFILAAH

Jun bZIP R263A;Fos bZIP K153A, sequence (P05412 252-315 R263A, chain 1 of 2): as the sequence (P05412 252-315 R272A, chain 1 of 2) above, with R12A, A21R counted along it
Jun bZIP R263A;Fos bZIP K153A, sequence (P01100 137-200 K153A, chain 2 of 2): as the sequence (P01100 137-200 R144A, chain 2 of 2) above, with A8R, K17A counted along it
Jun bZIP R263A;Fos bZIP R144A, sequence (P05412 252-315 R263A, chain 1 of 2): as the sequence (P05412 252-315 R272A, chain 1 of 2) above, with R12A, A21R counted along it
Jun bZIP R263A;Fos bZIP R144A, sequence (P01100 137-200 R144A, chain 2 of 2): as the sequence (P01100 137-200 R144A, chain 2 of 2) above
Jun bZIP R263A;Fos bZIP R143A, sequence (P05412 252-315 R263A, chain 1 of 2): as the sequence (P05412 252-315 R272A, chain 1 of 2) above, with R12A, A21R counted along it
Jun bZIP R263A;Fos bZIP R143A, sequence (P01100 137-200 R143A, chain 2 of 2): as the sequence (P01100 137-200 R144A, chain 2 of 2) above, with R7A, A8R counted along it
Jun-Jun bZIP R263A, sequence (P05412 252-315 R263A): as the sequence (P05412 252-315 R272A, chain 1 of 2) above, with R12A, A21R counted along it
Jun bZIP K268A;Fos bZIP R158A, sequence (P05412 252-315 K268A, chain 1 of 2): as the sequence (P05412 252-315 R272A, chain 1 of 2) above, with K17A, A21R counted along it
Jun bZIP K268A;Fos bZIP R158A, sequence (P01100 137-200 R158A, chain 2 of 2): as the sequence (P01100 137-200 R144A, chain 2 of 2) above, with A8R, R22A counted along it
Jun bZIP K268A;Fos bZIP R155A, sequence (P05412 252-315 K268A, chain 1 of 2): as the sequence (P05412 252-315 R272A, chain 1 of 2) above, with K17A, A21R counted along it
Jun bZIP K268A;Fos bZIP R155A, sequence (P01100 137-200 R155A, chain 2 of 2): as the sequence (P01100 137-200 R144A, chain 2 of 2) above, with A8R, R19A counted along it
Jun bZIP R272A;Fos bZIP R155A, sequence (P05412 252-315 R272A, chain 1 of 2): as the sequence (P05412 252-315 R272A, chain 1 of 2) above
Jun bZIP R272A;Fos bZIP R155A, sequence (P01100 137-200 R155A, chain 2 of 2): as the sequence (P01100 137-200 R144A, chain 2 of 2) above, with A8R, R19A counted along it
Jun bZIP R272A;Fos bZIP K153A, sequence (P05412 252-315 R272A, chain 1 of 2): as the sequence (P05412 252-315 R272A, chain 1 of 2) above
Jun bZIP R272A;Fos bZIP K153A, sequence (P01100 137-200 K153A, chain 2 of 2): as the sequence (P01100 137-200 R144A, chain 2 of 2) above, with A8R, K17A counted along it
Jun-Jun bZIP R272A, sequence (P05412 252-315 R272A): as the sequence (P05412 252-315 R272A, chain 1 of 2) above
Jun bZIP R272A;Fos bZIP R146A, sequence (P05412 252-315 R272A, chain 1 of 2): as above
Jun bZIP R272A;Fos bZIP R146A, sequence (P01100 137-200 R146A, chain 2 of 2): as the sequence (P01100 137-200 R144A, chain 2 of 2) above, with A8R, R10A counted along it
Jun-Jun bZIP R259A, sequence (P05412 252-315 R259A): as the sequence (P05412 252-315 R272A, chain 1 of 2) above, with R8A, A21R counted along it
Jun bZIP R259A;Fos bZIP K153A, sequence (P05412 252-315 R259A, chain 1 of 2): as the sequence (P05412 252-315 R272A, chain 1 of 2) above, with R8A, A21R counted along it
Jun bZIP R259A;Fos bZIP K153A, sequence (P01100 137-200 K153A, chain 2 of 2): as the sequence (P01100 137-200 R144A, chain 2 of 2) above, with A8R, K17A counted along it
Jun bZIP K273A;Fos bZIP R155A, sequence (P05412 252-315 K273A, chain 1 of 2): as the sequence (P05412 252-315 R272A, chain 1 of 2) above, with A21R, K22A counted along it
Jun bZIP K273A;Fos bZIP R155A, sequence (P01100 137-200 R155A, chain 2 of 2): as the sequence (P01100 137-200 R144A, chain 2 of 2) above, with A8R, R19A counted along it
Jun bZIP R270A;Fos bZIP R146A, sequence (P05412 252-315 R270A, chain 1 of 2): as the sequence (P05412 252-315 R272A, chain 1 of 2) above, with R19A, A21R counted along it
Jun bZIP R270A;Fos bZIP R146A, sequence (P01100 137-200 R146A, chain 2 of 2): as the sequence (P01100 137-200 R144A, chain 2 of 2) above, with A8R, R10A counted along it
Jun bZIP R270A;Fos bZIP R144A, sequence (P05412 252-315 R270A, chain 1 of 2): as the sequence (P05412 252-315 R272A, chain 1 of 2) above, with R19A, A21R counted along it
Jun bZIP R270A;Fos bZIP R144A, sequence (P01100 137-200 R144A, chain 2 of 2): as the sequence (P01100 137-200 R144A, chain 2 of 2) above
Jun bZIP R261A;Fos bZIP R143A, sequence (P05412 252-315 R261A, chain 1 of 2): as the sequence (P05412 252-315 R272A, chain 1 of 2) above, with R10A, A21R counted along it
Jun bZIP R261A;Fos bZIP R143A, sequence (P01100 137-200 R143A, chain 2 of 2): as the sequence (P01100 137-200 R144A, chain 2 of 2) above, with R7A, A8R counted along it

B1: TRE duplex 15-mer (dsDNA)
DNA 1: CGCGTGACTCACCCC
DNA 2: GGGGTGAGTCACGCG
[1]
  Kd: 1150 ± 80 nM
[2]
  Kd: 6700 ± 410 nM
[3]
  Kd: 750 ± 100 nM
[4]
  Kd: 1720 ± 150 nM
Jun-Jun bZIP R263A
  Kd: 2140 ± 100 nM
Jun-Jun bZIP R259A
  Kd: 5250 ± 60 nM
[5]
  Kd: 1030 ± 50 nM
[6]
  Kd: 2250 ± 50 nM
Jun-Jun bZIP R272A
  Kd: 490 ± 40 nM
[7]
  Kd: 430 ± 20 nM
[8]
  Kd: 1450 ± 130 nM
[9]
  Kd: 1390 ± 80 nM
[10]
  Kd: 6790 ± 420 nM
[11]
  Kd: 960 ± 110 nM
[12]
  Kd: 4210 ± 200 nM
[13]
  Kd: 2670 ± 130 nM
[14]
  Kd: 3720 ± 360 nM
